From paper PMC9482650, “Quantitative fragmentomics allow affinity mapping of interactomes” (Nature Communications, 2022)

T1: PDZD7_3, Q9H5P4
T1 sequence (Q9H5P4 857-944, limits assumed, looked up): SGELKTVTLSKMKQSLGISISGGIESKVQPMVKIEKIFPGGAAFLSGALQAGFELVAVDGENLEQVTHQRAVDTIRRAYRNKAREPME

T2: LIN7B, Q9HAP6
T2 sequence (Q9HAP6 88-185, limits assumed, looked up): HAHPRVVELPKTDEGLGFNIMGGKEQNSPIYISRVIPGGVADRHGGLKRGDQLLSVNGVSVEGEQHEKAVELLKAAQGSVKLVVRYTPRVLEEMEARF

T3: TIAM2, Q8IVF5
T3 sequence (Q8IVF5 885-986, limits assumed, looked up): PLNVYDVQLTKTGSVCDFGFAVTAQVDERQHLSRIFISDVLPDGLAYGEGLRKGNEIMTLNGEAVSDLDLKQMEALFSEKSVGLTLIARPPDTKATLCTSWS

T4: FRMPD1, Q5SYB0
T4 sequence (Q5SYB0 52-145, limits assumed, looked up): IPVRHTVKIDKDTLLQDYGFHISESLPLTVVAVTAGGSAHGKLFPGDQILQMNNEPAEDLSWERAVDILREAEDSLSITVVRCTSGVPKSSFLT

T5: GRIP1_4, Q9Y3R0
T5 sequence (Q9Y3R0 467-571, limits assumed, looked up): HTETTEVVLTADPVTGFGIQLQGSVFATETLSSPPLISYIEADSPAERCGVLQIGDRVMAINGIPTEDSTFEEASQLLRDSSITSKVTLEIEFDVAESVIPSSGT

T6: PTPN13_1, Q12923
T6 sequence (Q12923 1088-1188, limits assumed, looked up): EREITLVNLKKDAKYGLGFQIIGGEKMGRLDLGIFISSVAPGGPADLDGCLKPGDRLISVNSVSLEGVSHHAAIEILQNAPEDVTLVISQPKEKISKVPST

T7: LIN7A, O14910
T7 sequence (O14910 103-200, limits assumed, looked up): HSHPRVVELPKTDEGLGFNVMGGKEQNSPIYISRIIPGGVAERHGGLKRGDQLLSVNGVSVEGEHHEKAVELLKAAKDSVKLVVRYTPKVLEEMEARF

T8: APBA2_2, Q99767
T8 sequence (Q99767 654-744, limits assumed, looked up): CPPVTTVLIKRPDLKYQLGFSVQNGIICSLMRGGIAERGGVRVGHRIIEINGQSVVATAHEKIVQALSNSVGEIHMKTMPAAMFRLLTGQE

T9: PCLO, Q9Y6V0
T9 sequence (Q9Y6V0 4491-4600, limits assumed, looked up): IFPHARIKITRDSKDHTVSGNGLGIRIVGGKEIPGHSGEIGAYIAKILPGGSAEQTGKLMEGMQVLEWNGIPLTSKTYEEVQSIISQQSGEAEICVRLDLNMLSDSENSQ

T10: GRIP1_7, Q9Y3R0
T10 sequence (Q9Y3R0 999-1096, limits assumed, looked up): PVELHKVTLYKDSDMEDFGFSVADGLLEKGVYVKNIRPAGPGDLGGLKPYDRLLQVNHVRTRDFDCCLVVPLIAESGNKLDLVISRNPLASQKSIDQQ


What was measured:
Test in all cases: holdup assay
Set-up in all cases: key: below the threshold = too weak to quantify, mostly under pKd 3.1 to 4
Details in all cases: plain residues with an end cap or a label only (N-terminal biotin on a linker: ado-ado)
GRID2IP_1, A4D2P6 = target: GRID2IP_1, A4D2P6
PDZRN4_1, Q6ZMN7 = target: PDZRN4_1, Q6ZMN7
PDZD7_3, Q9H5P4 = target: T1, PDZD7_3, Q9H5P4
Inadl_5, Q8NI35 = target: Inadl_5, Q8NI35
LIN7B, Q9HAP6 = target: T2, LIN7B, Q9HAP6
TIAM2, Q8IVF5 = target: T3, TIAM2, Q8IVF5
MAGI2_3, Q86UL8 = target: MAGI2_3, Q86UL8
FRMPD1, Q5SYB0 = target: T4, FRMPD1, Q5SYB0
IL16_1, Q14005 = target: IL16_1, Q14005
SCRIB_1, Q14160 = target: SCRIB_1, Q14160
TJP1_2, Q07157 = target: TJP1_2, Q07157
DLG4_2, P78352 = target: DLG4_2, P78352
MAGI2_6, Q86UL8 = target: MAGI2_6, Q86UL8
GRIP1_4, Q9Y3R0 = target: T5, GRIP1_4, Q9Y3R0
LNX1_1, Q8TBB1 = target: LNX1_1, Q8TBB1
FRMPD4, Q14CM0 = target: FRMPD4, Q14CM0
PTPN13_1, Q12923 = target: T6, PTPN13_1, Q12923
LIN7A, O14910 = target: T7, LIN7A, O14910
MAST1, Q9Y2H9 = target: MAST1, Q9Y2H9
GRID2IP_2, A4D2P6 = target: GRID2IP_2, A4D2P6
MAGI2_4, Q86UL8 = target: MAGI2_4, Q86UL8
APBA2_2, Q99767 = target: T8, APBA2_2, Q99767
PCLO, Q9Y6V0 = target: T9, PCLO, Q9Y6V0
GRIP1_7, Q9Y3R0 = target: T10, GRIP1_7, Q9Y3R0
FRMPD3, Q5JV73 = target: FRMPD3, Q5JV73
DLG2_3, Q15700 = target: DLG2_3, Q15700
LNX1_3, Q8TBB1 = target: LNX1_3, Q8TBB1
Sequence of LNX1_3, Q8TBB1 (Q8TBB1 500-596): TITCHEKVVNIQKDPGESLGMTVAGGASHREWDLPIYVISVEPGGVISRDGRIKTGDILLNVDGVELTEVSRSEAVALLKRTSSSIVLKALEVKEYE

Sequence of IL16_1, Q14005 (Q14005 210-306): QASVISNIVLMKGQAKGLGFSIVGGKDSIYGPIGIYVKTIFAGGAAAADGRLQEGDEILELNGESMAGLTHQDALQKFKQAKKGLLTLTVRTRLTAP
Sequence of FRMPD3, Q5JV73 (Q5JV73 12-100): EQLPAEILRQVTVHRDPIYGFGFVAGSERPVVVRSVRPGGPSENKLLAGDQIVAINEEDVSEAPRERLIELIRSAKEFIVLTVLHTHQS
Sequence of GRID2IP_1, A4D2P6 (A4D2P6 1-87): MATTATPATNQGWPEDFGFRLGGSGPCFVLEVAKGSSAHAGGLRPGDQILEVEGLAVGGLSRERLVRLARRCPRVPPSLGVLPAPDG
Sequence of MAST1, Q9Y2H9 (Q9Y2H9 962-1065): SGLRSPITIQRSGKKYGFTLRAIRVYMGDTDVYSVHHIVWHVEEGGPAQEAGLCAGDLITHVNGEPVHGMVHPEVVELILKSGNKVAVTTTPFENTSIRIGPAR
Sequence of Inadl_5, Q8NI35 (Q8NI35 673-780): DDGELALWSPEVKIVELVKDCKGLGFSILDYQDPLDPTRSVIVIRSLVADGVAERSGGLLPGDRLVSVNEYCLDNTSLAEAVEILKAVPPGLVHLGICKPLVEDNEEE
Sequence of PDZRN4_1, Q6ZMN7 (Q6ZMN7 213-318): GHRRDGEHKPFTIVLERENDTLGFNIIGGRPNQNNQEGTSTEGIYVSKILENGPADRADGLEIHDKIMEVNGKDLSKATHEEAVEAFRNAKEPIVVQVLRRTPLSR
Sequence of MAGI2_3, Q86UL8 (Q86UL8 600-682): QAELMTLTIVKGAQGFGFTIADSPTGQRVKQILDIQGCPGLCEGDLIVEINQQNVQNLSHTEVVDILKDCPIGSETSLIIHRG
Sequence of DLG4_2, P78352 (P78352 155-259): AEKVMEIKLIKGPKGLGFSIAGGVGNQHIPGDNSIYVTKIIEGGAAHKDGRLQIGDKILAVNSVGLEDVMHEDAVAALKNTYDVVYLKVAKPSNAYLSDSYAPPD
Sequence of TJP1_2, Q07157 (Q07157 181-274): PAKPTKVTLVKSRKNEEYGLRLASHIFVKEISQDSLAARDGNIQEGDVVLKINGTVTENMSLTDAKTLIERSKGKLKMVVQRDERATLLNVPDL
Sequence of MAGI2_4, Q86UL8 (Q86UL8 772-865): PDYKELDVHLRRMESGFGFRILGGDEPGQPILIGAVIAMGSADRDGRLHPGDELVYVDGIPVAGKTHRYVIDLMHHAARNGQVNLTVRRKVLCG
Sequence of SCRIB_1, Q14160 (Q14160 718-814): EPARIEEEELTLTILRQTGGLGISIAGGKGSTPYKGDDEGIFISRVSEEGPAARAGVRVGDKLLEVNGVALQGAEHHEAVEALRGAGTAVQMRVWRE
Sequence of MAGI2_6, Q86UL8 (Q86UL8 1141-1229): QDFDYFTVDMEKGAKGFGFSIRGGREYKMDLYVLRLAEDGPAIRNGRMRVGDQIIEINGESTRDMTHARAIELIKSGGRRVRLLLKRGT
Sequence of LNX1_1, Q8TBB1 (Q8TBB1 261-371): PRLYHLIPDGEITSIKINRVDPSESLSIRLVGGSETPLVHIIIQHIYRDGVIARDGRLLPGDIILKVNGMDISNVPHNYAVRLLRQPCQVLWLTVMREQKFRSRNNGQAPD
Sequence of FRMPD4, Q14CM0 (Q14CM0 67-160): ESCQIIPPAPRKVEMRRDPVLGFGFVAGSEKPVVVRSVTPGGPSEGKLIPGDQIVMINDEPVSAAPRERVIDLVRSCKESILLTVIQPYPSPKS
Sequence of GRID2IP_2, A4D2P6 (A4D2P6 272-370): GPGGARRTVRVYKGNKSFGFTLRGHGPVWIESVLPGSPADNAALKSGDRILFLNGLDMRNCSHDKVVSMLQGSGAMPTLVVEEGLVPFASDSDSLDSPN

| Binder | pKd (GRID2IP_1, A4D2P6) | pKd (PDZRN4_1, Q6ZMN7) | pKd (PDZD7_3, Q9H5P4) | pKd (Inadl_5, Q8NI35) | pKd (LIN7B, Q9HAP6) | pKd (TIAM2, Q8IVF5) | pKd (MAGI2_3, Q86UL8) | pKd (FRMPD1, Q5SYB0) | pKd (IL16_1, Q14005) | pKd (SCRIB_1, Q14160) | pKd (TJP1_2, Q07157) | pKd (DLG4_2, P78352) | pKd (MAGI2_6, Q86UL8) | pKd (GRIP1_4, Q9Y3R0) | pKd (LNX1_1, Q8TBB1) | pKd (FRMPD4, Q14CM0) | pKd (PTPN13_1, Q12923) | pKd (LIN7A, O14910) | pKd (MAST1, Q9Y2H9) | pKd (GRID2IP_2, A4D2P6) | other results |
| --- | --- | --- | --- | --- | --- | --- | --- | --- | --- | --- | --- | --- | --- | --- | --- | --- | --- | --- | --- | --- | --- |
| MHIQEKGFHV [EPHA6, Q9UF33] | below the threshold | below the threshold | below the threshold | below the threshold | below the threshold | below the threshold | below the threshold | below the threshold | below the threshold | below the threshold | 3.52 | below the threshold | below the threshold | below the threshold | below the threshold | 3.77 | below the threshold | below the threshold | 3.69 | below the threshold | pKd (MAGI2_4, Q86UL8): below the threshold; pKd (APBA2_2, Q99767): below the threshold; pKd (PCLO, Q9Y6V0): below the threshold; pKd (GRIP1_7, Q9Y3R0): below the threshold; pKd (FRMPD3, Q5JV73): below the threshold; pKd (DLG2_3, Q15700): below the threshold; pKd (LNX1_3, Q8TBB1): below the threshold |
| VLYPREGTEV [FOXI1, Q12951] | below the threshold | 4.25 | 3.99 | 3.83 | below the threshold | below the threshold | below the threshold | below the threshold | 4 | 3.99 | below the threshold | 4.62 | 4.46 | below the threshold | 4.17 | 3.51 | below the threshold | below the threshold | 4.74 | 4.11 | pKd (MAGI2_4, Q86UL8): 4.98; pKd (APBA2_2, Q99767): below the threshold; pKd (PCLO, Q9Y6V0): below the threshold; pKd (GRIP1_7, Q9Y3R0): below the threshold; pKd (FRMPD3, Q5JV73): below the threshold; pKd (DLG2_3, Q15700): 3.9; pKd (LNX1_3, Q8TBB1): below the threshold |
| GTGYDRKDYV [CLDN3, O15551] | below the threshold | below the threshold | 4 | 3.49 | below the threshold | below the threshold | 3.48 | below the threshold | below the threshold | below the threshold | 3.6 | 3.63 | 3.52 | below the threshold | below the threshold | 3.56 | below the threshold | below the threshold | 4.03 | 3.68 | pKd (MAGI2_4, Q86UL8): 3.85; pKd (APBA2_2, Q99767): below the threshold; pKd (PCLO, Q9Y6V0): below the threshold; pKd (GRIP1_7, Q9Y3R0): below the threshold; pKd (FRMPD3, Q5JV73): below the threshold; pKd (DLG2_3, Q15700): below the threshold; pKd (LNX1_3, Q8TBB1): 3.49 |

More lines, main results first:

| pKd (GRID2IP_1, A4D2P6) | pKd (PDZRN4_1, Q6ZMN7) | pKd (PDZD7_3, Q9H5P4) | pKd (Inadl_5, Q8NI35) | pKd (LIN7B, Q9HAP6) | pKd (TIAM2, Q8IVF5) | pKd (MAGI2_3, Q86UL8) | pKd (FRMPD1, Q5SYB0) | pKd (IL16_1, Q14005) | pKd (SCRIB_1, Q14160) | pKd (TJP1_2, Q07157) | pKd (DLG4_2, P78352) | pKd (MAGI2_6, Q86UL8) | pKd (GRIP1_4, Q9Y3R0) | pKd (LNX1_1, Q8TBB1) | pKd (FRMPD4, Q14CM0) | pKd (PTPN13_1, Q12923) | pKd (LIN7A, O14910) | pKd (MAST1, Q9Y2H9) | pKd (GRID2IP_2, A4D2P6) | Binder | other results |
| --- | --- | --- | --- | --- | --- | --- | --- | --- | --- | --- | --- | --- | --- | --- | --- | --- | --- | --- | --- | --- | --- |
| below the threshold | below the threshold | 4.83 | below the threshold | below the threshold | below the threshold | 4.46 | below the threshold | below the threshold | 4.1 | below the threshold | 4.26 | 4.09 | below the threshold | 3.73 | 4.07 | below the threshold | 3.58 | 4.97 | 4.57 | RDPPAEWTRV [PTPN18, Q99952] | pKd (MAGI2_4, Q86UL8): 3.48; pKd (APBA2_2, Q99767): below the threshold; pKd (PCLO, Q9Y6V0): below the threshold; pKd (GRIP1_7, Q9Y3R0): below the threshold; pKd (FRMPD3, Q5JV73): below the threshold; pKd (DLG2_3, Q15700): 3.54; pKd (LNX1_3, Q8TBB1): 3.68 |
| below the threshold | below the threshold | 3.92 | below the threshold | 3.7 | 4.47 | below the threshold | below the threshold | below the threshold | below the threshold | 5.12 | below the threshold | below the threshold | below the threshold | below the threshold | 4.67 | below the threshold | below the threshold | 4.01 | below the threshold | RSSGGDDFWF [KCNV1, Q6PIU1] | pKd (MAGI2_4, Q86UL8): 4.13; pKd (APBA2_2, Q99767): below the threshold; pKd (PCLO, Q9Y6V0): below the threshold; pKd (GRIP1_7, Q9Y3R0): below the threshold; pKd (FRMPD3, Q5JV73): 4.82; pKd (DLG2_3, Q15700): 3.6; pKd (LNX1_3, Q8TBB1): below the threshold |
